From patent publication US20220288169A1, “COMPOSITIONS AND METHODS FOR THE TREATMENT AND PREVENTION OF HYPOGLYCEMIC COMPLICATIONS” (The Board of Supervisors of Louisiana State University and …, priority 2019, published 2022)
Values joined by “and” are separate entries in the source; they are usually repeats but may differ in a detail not shown here. Equal values may be shown once. “Also recorded” adds a separate entry of the source. Read-outs that look alike come from different tables or passages of the source.

How the values were obtained:
[1] = test system: male Sprague Dawley rats exposed to 3dRH (rat model of HAAF); type: in vivo
Experimental: For Experiment 5, a total of 21 rats were subjected to a three day recurrent hypoglycemia (3dRH) paradigm adapted from previous studies (44). […] On each of the three days of the paradigm, all rats received an IP injection of either PBS or leptin at ≈1.5 h prior to lights off. […] On the fourth day, all three cohorts of rats were then subjected to a hypoglycemic ITT for determination of hypoglycemia-induced epinephrine, glucagon, and corticosterone secretion. Leptin levels were also assayed in each group at the conclusion of the ITT. […] For mice, trunk blood was collected following CO2 euthanasia. […] Louis, Mo.). […] Rat leptin levels were determined by […], MilliporeSigma, St. Louis, Mo.). […] Methods: In experiment one, 3 groups of mice (two CR groups and one ad-lib fed control group) received either twice daily leptin (0.5-1 μg/g, IP) or PBS. In experiment two, 3 groups of rats (two 3dRH and one control) received daily leptin or PBS injections (0.3-0.7 mg/kg, IP).

[2] = test system: male C57BL/6J mice exposed to 60% caloric restriction (CR mice); type: in vivo, mouse
Experimental: In order to overcome differences in baseline blood glucose levels between groups, a variable dose of insulin (IP) was used to produce equivalent exposure to hypoglycemia (A). […] Data were analyzed via one or two way ANOVA. Group differences were determined via Bonferroni's multiple comparison test with significance levels as follows: *- p<0.05; n=7-8/group. A total of 149 mice were subjected to the severe caloric restriction and refeeding paradigm across four separate experiments. The following procedures were identical across all four experiments. Animals were randomly assigned to one of two groups: Mice exposed to severe caloric restriction for six days (CR mice) or ad libitum fed mice (Ad-lib mice). […] Following a five-day acclimation period to wire-bottomed cages (Days 0-4), food intake was monitored daily in each mouse for six days prior to initiation of caloric restriction, and each mouse's average daily food intake was determined (Days 5-10). […] Body weight and free-living blood glucose were measured daily immediately prior to feeding. […] During the refeeding period, food intake, free-living blood glucose, and body weight continued to be measured daily at 1.5 h before lights off in both CR and Ad-lib mice up to the terminal day of the experiments. […] Rat leptin levels were determined by […], MilliporeSigma, St. Louis, Mo.). […]

[3] = test system: starved rats; conditions: acute leptin infusion during starvation, cited from earlier work
[4] = test system: rats exposed to a single bout of hypoglycemia or 3dRH; conditions: cited from earlier work
[5] = acute ICV leptin in 3dRH rats, first 40 min of 90 min hypoglycemic challenge, relative to 3dRH rats not treated with leptin
[6] = acute ICV leptin infusion, rats exposed to a single bout of hypoglycemia

B1: leptin (protein, UniProt P50596 22-167, looked up)
Leptin: VPIHKVQDDTKTLIKTIVTRINDISHTQSVSARQRVTGLDFIPGLHPILSLSKMDQTLAVYQQILTSLPSQNVLQIAHDLENLRDLLHLLAFSKSCSLPQTRGLQKPESLDGVLEASLYSTEVVALSRLQGSLQDILQQLDLSPEC
notes: hormone secreted by adipocytes
- hypoglycemia-induced glucagon levels ([1]; 3dRH paradigm with leptin): not affected
- hypoglycemia-induced glucagon levels ([1]; 3dRH+Leptin rats, 60 min of ITT, mean (SD)): 34 pmol/L
- increase of epinephrine levels relative to untreated 3dRH rats ([1]; leptin concurrent with antecedent hypoglycemia): 50%
- leptin levels at the 60-minute time point relative to controls ([1]; rat, in vivo): significantly increased
- serum leptin levels at the conclusion of the ITT ([1]; rat, in vivo): 5.1 ng/mL
- hypoglycemia-induced glucagon levels ([2]; CR+Leptin mice, twice daily IP leptin 0.5-1 μg/g during CR, 60 min of ITT, Day 1 of refeeding, mean (SD)): 91.7 pmol/L and 78.1 pmol/L
- serum glucagon levels in response to the ITT ([2]; Example 7, leptin-treated CR mice, 0.5-1 μg/g IP twice daily, after 16 h refeeding and 6 h fast): 78.0 ± 16.8 pg/mL
- effect on blood glucose ([3]; physiological doses): reducing blood glucose
- effect on blood glucose ([3]; supraphysiological doses): increasing blood glucose
- epinephrine levels increased by [4, 5]: 25%
- glucagon levels increased by [4, 5]: 45%
- epinephrine levels increased by [4, 6]: 19%
- glucagon levels decreased by [4, 6]: 50%
- rescue of counter-regulation by acute leptin ([4]; acute leptin administration, 3dRH rats): did not restore counter-regulation; also recorded: does not reverse the effects of 3dRH; also recorded: did not correct the deficit in epinephrine release; also recorded: does not rescue the effect
- epinephrine levels lower than untreated rats exposed to a single bout of hypoglycemia ([4]; leptin treated 3dRH rats): 60%
